Experimental data: the supplement of paper PMC10567573

B1: ANKRD17 (parent)
chain: EVLRRLTSSVSCALDEAAAALTRM
B2: PSD2 (parent)
chain: LTHFSRRYCQCNPDDSTSEDGIHT

Variants of: B1
Experiment: protein stability index of a GFP-peptide fusion (GPS, HEK-293T) (PSI 1-6); higher = more stable
Conditions: c terminus: a fixed tail appended
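Note: lentivirally expressed fusions sorted by FACS into six bins by GFP to DsRed ratio, PSI derived from sequencing read proportions per bin multiplied by bin number.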

Protein stability index: each site, then its substitutions
C12: E 3 | M 1.74 | H 4.25 | N 3.93 | T 2.97 | I 1.71 | G 3.18
A18: W 1.64 | H 1.68 | T 2.27 | L 1.68 | K 2.92 | M 2.25 | F 1.94
T7: C 2.05 | I 2.06 | E 2.81 | H 1.17 | G 2.27 | N 1.16
V10: W 1.4 | Y 1.65 | T 1.3 | P 1.29 | E 1.81 | H 1.74
R5: T 1 | N 2.35 | W 1.02 | M 2.05 | K 4.55 | F 1.68 | G 2.1
L21: F 1.65 | I 1.93 | N 3.47 | C 1.18 | D 1.53 | M 1.5
T22: H 3.03 | W 1.46 | P 2.33 | A 1.94 | D 2.22 | E 2.06 | V 1.24 | R 1.31 | C 2.1 | M 2.39
M24: T 3.53 | Q 2.2 | R 2.72 | F 2.44 | N 1.65 | C 2.33 | L 2.81 | W 3.27 | V 1.07 | I 2.08 | Y 1.43 | H 2.49
S9: W 2.63 | R 2.69 | D 1.65 | N 1.81 | I 1.97 | G 1.64
A19: N 2.55 | V 2.99 | T 2.29 | Y 2.92 | P 2.25 | D 1.83 | S 2.16 | F 3.41
R4: E 1.42 | P 2.15 | Q 1.57 | G 2.19 | Y 2.34 | W 1.07
E16: Y 2.43 | D 1.72 | A 2.32 | K 1.54 | N 3 | I 1.97 | R 2.09 | H 1.8 | F 3.12
E1: Q 3.07 | I 1.89 | L 1.8 | H 2.67 | D 1.97 | A 2.07
L6: A 2.11 | P 2.38 | C 2.38 | T 2.32 | F 1.9 | N 2.07 | M 1.76 | H 1.66
S8: C 2.81 | T 3 | G 1.52 | H 2.09 | D 2.25 | V 2.27 | Q 1.41 | N 2.49 | M 2.13
A13: N 1.69 | H 2.42 | L 1.38 | R 2.06 | P 1.37 | M 1.6
A17: D 1.46 | F 2.03 | I 2.26 | L 2.34
V2: R 2.6 | S 2.59 | I 2.4 | C 2.34 | Q 2.56 | E 2.21
L14: S 2.72 | M 2.81 | I 2.22 | Y 2.27 | K 1.79 | D 1.94 | A 2.23 | N 2.11
S11: D 2.18 | V 1.35 | Q 1.18 | E 1.92 | T 2.42 | G 1.03 | I 2.1
D15: R 1.85 | C 1.99 | E 2.2 | A 1.35
A20: I 2.52 | Q 3.08 | M 2.28 | F 1.65
L3: M 1.41 | P 3.4
R23: H 1.95 | W 3.5 | M 1.59 | N 1.35

Variants of: B2
Experiment: as above
Conditions: c terminus: a fixed tail appended

Protein stability index: each site, then its substitutions
L1: A 3.56 | C 3.89 | D 4.21 | E 3.17 | F 2.72 | G 3.79 | H 3.66 | I 3.69 | K 3.49 | M 3.16 | N 3.75 | P 3.96 | Q 3.53 | S 3.7 | T 3.75 | V 3.77 | W 3.36 | Y 1.62
T2: A 3.18 | C 2.51 | D 4.29 | E 4.41 | F 2.63 | G 3.67 | H 3.9 | I 3.01 | K 2.47 | L 2.41 | M 2.86 | N 3.74 | P 3.26 | Q 2.87 | R 2.63 | S 3.23 | V 2.24 | W 2.28 | Y 2.79
H3: A 3.54 | C 2.73 | D 4.38 | E 3.61 | F 2.16 | G 2.92 | I 2.83 | K 3.52 | L 2.96 | M 2.62 | N 3.55 | P 3.03 | Q 3.47 | R 3.62 | S 3.29 | T 3.28 | V 3.69 | W 2.16 | Y 3.13
F4: A 4.42 | C 3.38 | D 3.57 | E 4.55 | G 4.57 | H 4.51 | I 3.17 | L 3.5 | M 3.49 | N 4.51 | P 4.18 | Q 3.73 | R 3.33 | S 3.61 | T 4.07 | V 3.16 | W 3.31 | Y 2.85
S5: A 3.43 | C 2.71 | D 4.38 | E 3.97 | F 2.18 | G 3.78 | H 3.36 | I 2.34 | K 2.57 | L 3.06 | M 2.89 | N 3.69 | P 3.4 | Q 4.35 | R 2.53 | T 3.42 | V 2.67 | W 1.94 | Y 2.27
R6: A 4.22 | C 2.8 | D 4.93 | E 4.83 | F 2.33 | G 4.2 | H 3.93 | I 2.75 | K 3.21 | L 3.3 | M 3.29 | N 4.12 | P 3.9 | Q 3.49 | S 4.02 | T 3.78 | V 3.08 | W 2.95 | Y 2.74
R7: A 3.3 | C 3.15 | D 4.69 | E 4.43 | F 3.26 | G 2.93 | H 3.8 | I 3.64 | K 3.53 | L 3.74 | M 3.84 | N 3.75 | P 4.46 | Q 4.57 | S 3.51 | T 4.01 | V 3.13 | W 2.32 | Y 2.92
Y8: A 3.75 | C 3.01 | D 4.72 | E 5.36 | F 3.27 | G 3.57 | H 3.88 | I 3.48 | K 3.66 | L 3.86 | M 3.62 | N 4.74 | P 4.36 | Q 3.98 | R 3.7 | S 3.93 | T 4.18 | V 3.8 | W 2.36
C9: A 4.23 | E 4.16 | F 3.83 | G 4.15 | H 3.84 | I 3.96 | K 4.39 | L 3.67 | M 4.16 | N 4.09 | P 4.64 | Q 5.06 | R 4.1 | S 4.78 | T 4.12 | V 4.13 | W 3.57 | Y 4.06
Q10: A 3.72 | C 2.63 | D 3.84 | E 3.87 | F 2.25 | G 3.21 | H 2.88 | I 1.97
